According to patent US20150299277A1, “AGENT FOR TREATING OR PREVENTING SYSTEMIC INFLAMMATORY RESPONSE SYNDROME” (THE UNIVERSITY OF TOKYO, priority 2012, published 2015):
“Also recorded” adds a separate entry of the source.

Tests used:
each histone = test: BIAcore / surface plasmon resonance (SPR) measurement; format: binding, human; settings: immobilized recombinant histone
Experimental: For the measurement, BIAcore 3000 or T200 (GE Healthcare) was used. Recombinant human histone was immobilized on CM5 sensor chip by an amine coupling kit (GE Healthcare). The reaction with recombinant PTX3 was performed using a buffer (150 mM NaCl, 20 mM HEPES, 0.005% surfactant P20 (pH 7.4)) at a flow rate of 20 μl/min. Measurement was performed using the buffer containing […]. The sensor chip was regenerated in IM sodium acetate (10 μL, pH 7.2) and 10 mM NaOH (10 μL).
The binding of immobilized each recombinant histone, and Myc- and His-tagged human PTX3 fragment was measured by surface plasmon resonance (SPR). The highest concentration of each PTX3 was as follows. full-length PTX3: 1 nM, N-terminal domain of PTX3: 5 nM, C-terminal domain of PTX3: 50 nM. The assay buffer contained 4 mM CaCl2 (Ca^2+) or 4 mM EDTA/EGTA. The affinity measured by SPR was calculated from three experiments.

Calf Thymus Histones = test: Aggregation with histone, absorbance at 310 nm; format: binding; settings: mixture with Calf Thymus Histones
Experimental: The lower left figure and the lower right figure show the measurement results of absorbance at 310 nm of a mixture of a wild-type or oligomer formation capacity-deficient mutant of PTX3 N-terminal domain having each concentration and 0.1 mg/mL Calf Thymus Histones at 1:1 vol.
The aggregation activity of PTX3 and other pentraxins to histone was evaluated. Calf Thymus Histones (50 μg/mL) were mixed with a PTX3 fragment or the other pentraxin at each concentration, and the absorbance at the wavelength of 310 nm was measured. Before mixing, samples were dialyzed against 4 mM CaCl2-containing TBS.

histone H1 = target: T1, histone H1 (Homo sapiens, UniProt P07305); test: ELISA binding assay; settings: immobilized recombinant histone, absorbance at 450 nm
T1 construct: purchased NEB
Experimental: (§1) Recombinant human histone (NEB) was adjusted to a concentration of 1 μg/mL in TBS, added to a 96 well ELISA plate, and immobilized at 4° C. overnight. The solution was discarded, a blocking buffer (TBS, 0.1% Triton-X100, 1% BSA) was added, and the plate was incubated at room temperature for 2 hr. The plate was washed four times with a wash buffer (TBS, 0.1% Triton-X100), recombinant PTX3 diluted to various concentrations with the blocking buffer was added to each well, and reacted at room temperature for 1 hr. After washing four times with the wash buffer, HRP-labeled antibody diluted with the blocking buffer was added, and reacted at room temperature for 1 hr. After washing four times with the wash buffer, TMB solution was added to carry out a color development reaction for 30 min, and the absorbance at 450 nm was measured. Assay was performed using all the buffers containing 4 mM CaCl2 or 4 mM EDTA.
(§2) The binding level between immobilized each recombinant histone and tag-free recombinant human PTX3 (rhPTX3) was measured by binding assay (ELISA). For the detection, HRP-labeled anti-PTX3 monoclonal antibody (PPZ1228) was used. ELISA was performed with duplicate wells for each point, and means and standard deviations were calculated from three independent experiments.
as §2, with “a tagged” for “tag-free recombinant”, “fragment” for “(rhPTX3)”, “For” for “For the”, “anti-His (6×His)” for “anti-PTX3 monoclonal”, “antibody” for “antibody (PPZ1228)”

histone H3 = target: T2, histone H3 (Homo sapiens, UniProt P68431); test: ELISA binding assay; settings: immobilized recombinant histone, absorbance at 450 nm
T2 construct: purchased NEB
Experimental: as §1, §2
as §2, with “a tagged” for “tag-free recombinant”, “fragment” for “(rhPTX3)”, “For” for “For the”, “anti-His (6×His)” for “anti-PTX3 monoclonal”, “antibody” for “antibody (PPZ1228)”

each histone variant = test: Aggregation of each histone variant and PTX3 fragment, absorbance at 310 nm; format: binding; settings: histone variant 50 μg/mL, PTX3 fragment 30 μg/mL
Experimental: Each histone variant (50 μg/mL) and each PTX3 fragment (30 μg/mL) were mixed, and the absorbance at the wavelength of 310 nm was measured. Before mixing, samples were dialyzed against 4 mM CaCl2-containing TBS.

histone H4 = histone H4 (Homo sapiens, UniProt P62805); test: ELISA binding assay; set-up: purchased NEB; settings: immobilized recombinant histone, absorbance at 450 nm
Experimental: as §1, §2
as §2, with “a tagged” for “tag-free recombinant”, “fragment” for “(rhPTX3)”, “For” for “For the”, “anti-His (6×His)” for “anti-PTX3 monoclonal”, “antibody” for “antibody (PPZ1228)”

[1] = test system: Calf Thymus Histones on HUVEC; test: Cytotoxic assay: suppression of histone cytotoxicity on HUVEC; format: cell-based, human; settings: 100 μg/mL Calf Thymus Histones, 40 μg/mL protein, 1 hr, PI staining, FACS
Experimental: After culturing for 1 hr in a medium concurrently containing 100 μg/mL Calf Thymus Histones and APC (200 nM), PTX3 (40 μg/mL), CRP (40 μg/mL) or SAP (40 μg/mL), the level of toxic activity was measured by FACS.
Normal human umbilical vein endothelial cells (HUVECs) were cultured in EGM2 medium (Clonetics). The cells after culture were washed with PBS, added with Opti-MEM medium containing an product of incubation of activated protein C (APC), PTX3, C reactive protein (CRP) or Serum amyloid P component (SAP) with histone for 1 hr, and the cells were further cultured for 1 hr. Propidium iodide (PI) was added to the medium after culture at a final concentration of 10 μg/mL, and the cells were stained for 10 min. The cells were washed with PBS, detached and analyzed by flow cytometry.
The histone cytotoxicity on HUVEC was evaluated by propidium iodide (PI) staining.
Lastly, capacity of suppressing the cytotoxic activity of histone was confirmed. Since this experiment requires a certain amount of protein and an endotoxin-elimination as treatment, a protein was expressed and purified at a 500 mL culture scale, and subjected to an endotoxin-elimination treatment (FIG. 18). In the case of PTX3 N-terminal domain, about 10 mg was obtained at a 500 mL culture scale, and a loss by the endotoxin-elimination treatment was scarcely observed. […] A capacity of fragment proteins obtained at a 500 mL scale on HUVEC to suppress histone cytotoxicity was studied. […] In consideration of the experiments relating to the binding and aggregation, all fragments were considered to possibly have a certain level of suppressive capacity.

fragment H3-11 on HUVEC = test: Suppression of cytotoxic activity of histone fragment on HUVEC; format: cell-based, human; settings: fragment 250 μg/mL; full-length PTX3 at 80 μg/mL; HUVEC 1 hr
Experimental: (§3) Then, a suppressive effect of PTX3 on the cytotoxic activity of fragments […], H3-8, H3-11 and H4-9 was evaluated.
(§4) In the same manner as in FIGS. 7B-D, a suppressive effect of the N-terminal domain of PTX3 on the cytotoxic activity of histone H3 and H4 fragments was evaluated.

fragment H3-6 on HUVEC = test: as above; format: cell-based, human; settings: fragment 250 μg/mL; full-length PTX3 at 80 μg/mL; HUVEC 1 hr
Experimental: as §3, §4

fragment H4-9 on HUVEC = test: as above; format: cell-based, human; settings: fragment 250 μg/mL; full-length PTX3 at 80 μg/mL; HUVEC 1 hr
Experimental: as §3, §4

fragment H3-8 on HUVEC = test: as above; format: cell-based, human; settings: fragment 250 μg/mL; full-length PTX3 at 80 μg/mL; HUVEC 1 hr
Experimental: as §3, §4

T1 sequence (P07305 whole entry): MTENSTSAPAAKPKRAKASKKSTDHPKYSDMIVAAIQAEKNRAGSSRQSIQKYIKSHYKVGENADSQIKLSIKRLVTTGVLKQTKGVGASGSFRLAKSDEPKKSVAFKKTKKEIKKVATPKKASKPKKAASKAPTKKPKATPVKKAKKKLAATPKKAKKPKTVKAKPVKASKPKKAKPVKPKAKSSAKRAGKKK

Substance	affinity for each histone by SPR (each histone)	affinity for each histone by SPR (each histone; listed as PTX3)	aggregation with Calf Thymus Histones, absorbance at 310 nm (Calf Thymus Histones)	binding to histone H1 (binding assay) (histone H1)	binding to histone H3 (binding assay) (histone H3)	aggregation with each histone variant, absorbance at 310 nm (each histone variant)	binding to histone H4 (binding assay) (histone H4)	suppression of toxic activity of Calf Thymus Histones on HUVEC [1]	suppression of toxic activity of Calf Thymus Histones on HUVEC ([1]; listed as PTX3)	suppressive effect on cytotoxic activity of fragment H3-11 (fragment H3-11 on HUVEC)	suppressive effect on cytotoxic activity of fragment H3-6 (fragment H3-6 on HUVEC)	suppressive effect on cytotoxic activity of fragment H4-9 (fragment H4-9 on HUVEC)	suppressive effect on cytotoxic activity of fragment H3-8 (fragment H3-8 on HUVEC)	aggregation with Calf Thymus Histones, absorbance at 310 nm (Calf Thymus Histones; listed as N-terminal domain)	binding to histone H1 (binding assay) (histone H1; listed as N-terminal domain)	binding to histone H3 (binding assay) (histone H3; listed as N-terminal domain)	binding to histone H4 (binding assay) (histone H4; listed as N-terminal domain)
full-length PTX3: full-length human pentraxin 3 (1-381 amino acids, SEQ ID NO: 2), used tag-free or Myc- and His-tagged	full-length PTX3>N-terminal domain>C-terminal domain	extremely high	showed an aggregation activity with histone	strong binding affinity	strong binding affinity	aggregated	strong binding affinity	suppress toxic activity of histone on HUVEC	suppresses cytotoxic activity of extracellular histone on HUVEC to the same level as APC	neutralized	neutralized	neutralized	neutralized				
N-terminal domain of PTX3: N-terminal domain human PTX3 (18-178 amino acids, SEQ ID NO: 3), tagged, expressed in CHO cells or Escherichia coli	full-length PTX3>N-terminal domain>C-terminal domain		showed an aggregation activity with histone	equivalent to that of the full-length PTX3	equivalent to that of the full-length PTX3	aggregated	equivalent to that of the full-length PTX3	suppress toxic activity of histone on HUVEC; also recorded: suppressed		neutralized	neutralized	neutralized	neutralized	an aggregation reaction	strong bindability	strong bindability	strong bindability
